Measured values as given in patent CN114409788A (WEST CHINA HOSPITAL OF SICHUAN UNIV, dated 2022).

Experiments:
[1] = target: T1, mono-Mac-6细胞表面的CD38 (UniProt P28907 1-300, limits assumed); test: flow cytometry on mono-Mac-6 cells, antibody production supernatant, APC anti-IgM secondary antibody
T1 construct: whole, on cells; also called CD38 on mono-Mac-6 cells
T1 sequence (looked up): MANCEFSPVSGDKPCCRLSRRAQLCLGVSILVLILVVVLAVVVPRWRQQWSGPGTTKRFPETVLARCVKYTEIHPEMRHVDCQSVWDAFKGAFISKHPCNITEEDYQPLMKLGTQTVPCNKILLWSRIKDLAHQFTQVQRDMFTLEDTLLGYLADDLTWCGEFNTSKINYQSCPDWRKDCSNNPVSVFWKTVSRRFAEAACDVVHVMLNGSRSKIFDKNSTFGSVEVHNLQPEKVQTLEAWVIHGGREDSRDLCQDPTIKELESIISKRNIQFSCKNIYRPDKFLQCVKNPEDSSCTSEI

[2] = target: T2, human CD38 Protein (ECD, His Tag) (human, UniProt P28907 43-300); test: ELISA, human CD38 ECD-His coated on plate, detection with HRP goat anti-mouse IgM, OD450
T2 construct: extracellular domain; Commercial recombinant antigen coated on the ELISA plate at 0.5 ug/ml; also called 未标记抗原; not shown: His tag
T2 sequence (looked up): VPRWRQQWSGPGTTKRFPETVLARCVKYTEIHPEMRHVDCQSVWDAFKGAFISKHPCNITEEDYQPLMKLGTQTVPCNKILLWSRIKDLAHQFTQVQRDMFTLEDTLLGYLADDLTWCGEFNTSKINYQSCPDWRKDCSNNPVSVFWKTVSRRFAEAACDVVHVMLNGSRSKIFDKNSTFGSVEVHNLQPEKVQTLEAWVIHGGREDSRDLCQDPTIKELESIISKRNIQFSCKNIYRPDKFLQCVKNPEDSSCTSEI

- binding result [1]: binds
- binding result [2]: binds
B1: 单克隆抗体70B5 (抗CD38的单克隆抗体) (antibody, V domains shown)
VH: EVQLQQSGPELVKPGASVKISCKASGYTFTDYYMNWVKQSHGKSLEWIGDINPNNGGTSYNQKFKGKATLTVDKSSSTAYMELRSLTSEDSAVYYCARGYYSNPFDVWGTGTTVTVSS
VL: DIQMTQSPSSLSASLGERVSLTCRASQDIGSSLNWLQQEPDGTIKRLIYATSSLDSGVPKRFSGSRSGSDYSLTISSLESEDFVDYYCLQYASSPLTFGAGTKLELK
notes: also called 70B5抗体
